# Patent publication US20220402990
# Legend:
# [1] = tested on: IFN-α2b-1204DNIdl-hIgG4 with five amino acid residues added to the linker
# [2] = tested on: Activatable cytokine construct IFN-α-2b 1490DNI-hIgG4
# [3] = tested on: Activatable cytokine construct IFN-α2b-1204DNIdl-hIgG4
# [4] = tested on: Activatable cytokine construct ProC440 (N IFNα2b 0 1204DNIdL 0AA Fc)
substance,measurement,setting,value
recombinant human urokinase-type plasminogen activator (uPA),"protease cleavage, gel electrophoresis",[1],The results suggest that the proteases were effective at cleaving the cleavable moieties in the activatable cytokine constructs
same,"protease cleavage, gel electrophoresis",[2],The results suggest that the proteases were effective at cleaving the cleavable moieties in the activatable cytokine constructs
same,"protease cleavage, gel electrophoresis",[3],The results suggest that the proteases were effective at cleaving the cleavable moieties in the activatable cytokine constructs
same,"protease cleavage, mass spectrometry",[4],Cleavage with uPa at the expected site in the CM was confirmed by Mass spectrometry analysis
